# According to patent publication US20250242064A1, “CXCR4-TARGETING COMPOUNDS, AND METHODS OF MAKING AND USING THE SAME” (PROVINCIAL HEALTH SERVICES AUTHORITY, priority 2022, published 2025):
# Where a SMILES comes first, the peptide text is derived from it. Bridges are numbered along the chain shown (N, C = ends). Side-chain parts run from the residue outwards. [ ]: non-standard residue; d: D form. The star is where a group is joined. X1 = O=C(O)CN1CCN(CC(=O)O)CCN(CC(=O)N[C@@H](CS(=O)(=O)O)C(=O)N[C@@H](CCCCNC(=O)CCCc2ccc(I)cc2)C(=O)*)CCN(CC(=O)O)CC1; X2 = O=C(O)CN1CCOCCN(CC(=O)O)CCN(CC(=O)*)CCOCCN(CC(=O)O)CC1; 2Nal = N[C@@H](Cc1ccc2ccccc2c1)C(=O)O; Lys(iPr) = CC(C)NCCCC[C@H](N)C(=O)O; Cya = N[C@@H](CS(=O)(=O)O)C(=O)O
# How the values were obtained:
# Z138 tumor-bearing mice = test: in vivo; conditions: male, NOD.Cg-Rag1tm1Mom Il2rgtm1Wjl/SzJ (NRG), mouse, iv
# Procedure, shortened: (§1)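 Male NRG mice bearing subcutaneous Z138 mantle cell lymphoma xenografts (5×10^6 cells, grown to 200-300 mm^3) injected intravenously under isoflurane with 68Ga-labelled tracers. Harvested tissues weighed and gamma-counted; uptake expressed as % ID/g.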
# in vivo = test: in vivo; set-up: species or system mice; conditions: male, NOD.Cg-Rag1tm1Momll2rgtm1Wjl/SzJ (NRG), mouse, iv, total radioactivity, Mean; for tissue uptake at 1 h / tissue uptake at 3 h / tissue uptake at 24 h / tissue uptake at 72 h / tissue uptake at 120 h: Biodistribution
# Procedure, shortened: as §1
smiles,measurement,setting,value
CC(C)NCCCC[C@H](NC(=O)[C@H]1CCC(=O)N[C@@H](CCCCNC(=O)[C@H](CCCCNC(=O)CCCc2ccc(I)cc2)NC(=O)[C@H](CS(=O)(=O)O)NC(=O)CN2CCN(CC(=O)O)CCN(CC(=O)O)CCN(CC(=O)O)CC2)C(=O)N[C@@H](Cc2ccc(O)cc2)C(=O)N[C@@H](CCCCNC(C)C)C(=O)N[C@H](CCCNC(=N)N)C(=O)N[C@@H](Cc2ccc3ccccc3c2)C(=O)N[C@H](C)C(=O)N1)C(N)=O [[^177Lu]Lu-BL34L11] [metal not drawn] (K(X1)Y[Lys(iPr)][dR][2Nal][dA][dE][Lys(iPr)]-NH2; lactam N-7),Biodistribution: Adrenals,Z138 tumor-bearing mice; 1 h,3.76 % ID/g
same,Biodistribution: Blood,Z138 tumor-bearing mice; 1 h,18.59 % ID/g
same,Biodistribution: Bone,Z138 tumor-bearing mice; 1 h,1.16 % ID/g
same,Biodistribution: Brain,Z138 tumor-bearing mice; 1 h,0.29 % ID/g
same,Biodistribution: Heart,Z138 tumor-bearing mice; 1 h,4.23 % ID/g
same,Biodistribution: Kidneys,Z138 tumor-bearing mice; 1 h,5.23 % ID/g
same,Biodistribution: Liver,Z138 tumor-bearing mice; 1 h,3.14 % ID/g
same,Biodistribution: Lungs,Z138 tumor-bearing mice; 1 h,14.83 % ID/g
same,Biodistribution: Muscle,Z138 tumor-bearing mice; 1 h,1.20 % ID/g
same,Biodistribution: Pancreas,Z138 tumor-bearing mice; 1 h,1.80 % ID/g
same,Biodistribution: Small Intestine,Z138 tumor-bearing mice; 1 h,1.56 % ID/g
same,Biodistribution: Spleen,Z138 tumor-bearing mice; 1 h,1.56 % ID/g
same,Biodistribution: Stomach,Z138 tumor-bearing mice; 1 h,0.61 % ID/g
same,Biodistribution: Testes,Z138 tumor-bearing mice; 1 h,2.49 % ID/g
same,Biodistribution: Z138 Tumor,Z138 tumor-bearing mice; 1 h,4.09 % ID/g
same,Ratio Tumor-to-Blood,Z138 tumor-bearing mice; 1 h,0.22
same,Ratio Tumor-to-Bone,Z138 tumor-bearing mice; 1 h,2.39
same,Ratio Tumor-to-Kidney,Z138 tumor-bearing mice; 1 h,0.78
same,Ratio Tumor-to-Muscle,Z138 tumor-bearing mice; 1 h,3.35
same,Ratio Tumor-to-Pancreas,Z138 tumor-bearing mice; 1 h,2.31
same,Biodistribution: Adrenals,Z138 tumor-bearing mice; 3 h,3.12 % ID/g
same,Biodistribution: Blood,Z138 tumor-bearing mice; 3 h,14.23 % ID/g
same,Biodistribution: Bone,Z138 tumor-bearing mice; 3 h,0.97 % ID/g
same,Biodistribution: Brain,Z138 tumor-bearing mice; 3 h,0.22 % ID/g
same,Biodistribution: Heart,Z138 tumor-bearing mice; 3 h,3.34 % ID/g
same,Biodistribution: Kidneys,Z138 tumor-bearing mice; 3 h,3.92 % ID/g
same,Biodistribution: Liver,Z138 tumor-bearing mice; 3 h,3.18 % ID/g
same,Biodistribution: Lungs,Z138 tumor-bearing mice; 3 h,7.95 % ID/g
same,Biodistribution: Muscle,Z138 tumor-bearing mice; 3 h,1.25 % ID/g
same,Biodistribution: Pancreas,Z138 tumor-bearing mice; 3 h,1.54 % ID/g
same,Biodistribution: Small Intestine,Z138 tumor-bearing mice; 3 h,1.35 % ID/g
same,Biodistribution: Spleen,Z138 tumor-bearing mice; 3 h,2.03 % ID/g
same,Biodistribution: Stomach,Z138 tumor-bearing mice; 3 h,0.83 % ID/g
same,Biodistribution: Testes,Z138 tumor-bearing mice; 3 h,3.53 % ID/g
same,Biodistribution: Z138 Tumor,Z138 tumor-bearing mice; 3 h,9.81 % ID/g
same,Ratio Tumor-to-Blood,Z138 tumor-bearing mice; 3 h,0.69
same,Ratio Tumor-to-Bone,Z138 tumor-bearing mice; 3 h,8.14
same,Ratio Tumor-to-Kidney,Z138 tumor-bearing mice; 3 h,2.52
same,Ratio Tumor-to-Muscle,Z138 tumor-bearing mice; 3 h,7.89
same,Ratio Tumor-to-Pancreas,Z138 tumor-bearing mice; 3 h,6.59
"CC(C)NCCCC[C@H](NC(=O)[C@H]1CCC(=O)N[C@@H](CCCCNC(=O)[C@H](CS(=O)(=O)O)NC(=O)CN2CCOCCN(CC(=O)O)CCN(CC(=O)O)CCOCCN(CC(=O)O)CC2)C(=O)N[C@@H](Cc2ccc(O)cc2)C(=O)N[C@@H](CCCCNC(C)C)C(=O)N[C@H](CCCNC(=N)N)C(=O)N[C@@H](Cc2ccc3ccccc3c2)C(=O)N[C@H](C)C(=O)N1)C(N)=O [[^177Lu]Lu-crown-BL34L20, metal not drawn] (K([Cya-X2])Y[Lys(iPr)][dR][2Nal][dA][dE][Lys(iPr)]-NH2; lactam N-7)",tissue uptake at 1 h,in vivo; Adrenals,0.2 %ID/g
same,tissue uptake at 3 h,in vivo; Adrenals,0.11 %ID/g
same,tissue uptake at 24 h,in vivo; Adrenals,0.1 %ID/g
same,tissue uptake at 72 h,in vivo; Adrenals,0.08 %ID/g
same,tissue uptake at 120 h,in vivo; Adrenals,0.05 %ID/g
same,tissue uptake at 1 h,in vivo; Blood,0.35 %ID/g
same,tissue uptake at 3 h,in vivo; Blood,0.08 %ID/g
same,tissue uptake at 24 h,in vivo; Blood,0.02 %ID/g
same,tissue uptake at 72 h,in vivo; Blood,0.01 %ID/g
same,tissue uptake at 1 h,in vivo; Bone,0.15 %ID/g
same,tissue uptake at 3 h,in vivo; Bone,0.15 %ID/g
same,tissue uptake at 24 h,in vivo; Bone,0.51 %ID/g
same,tissue uptake at 72 h,in vivo; Bone,0.66 %ID/g
same,tissue uptake at 120 h,in vivo; Bone,0.56 %ID/g
same,tissue uptake at 1 h,in vivo; Brain,0.01 %ID/g
same,tissue uptake at 3 h,in vivo; Brain,0.01 %ID/g
same,tissue uptake at 24 h,in vivo; Brain,0.01 %ID/g
same,tissue uptake at 72 h,in vivo; Brain,0.01 %ID/g
same,tissue uptake at 1 h,in vivo; Heart,0.14 %ID/g
same,tissue uptake at 3 h,in vivo; Heart,0.06 %ID/g
same,tissue uptake at 24 h,in vivo; Heart,0.05 %ID/g
same,tissue uptake at 72 h,in vivo; Heart,0.05 %ID/g
same,tissue uptake at 120 h,in vivo; Heart,0.05 %ID/g
same,tissue uptake at 1 h,in vivo; Kidneys,3.02 %ID/g
same,tissue uptake at 3 h,in vivo; Kidneys,2.45 %ID/g
same,tissue uptake at 24 h,in vivo; Kidneys,1.81 %ID/g
same,tissue uptake at 72 h,in vivo; Kidneys,0.94 %ID/g
same,tissue uptake at 120 h,in vivo; Kidneys,0.59 %ID/g
same,tissue uptake at 1 h,in vivo; Liver,0.73 %ID/g
same,tissue uptake at 3 h,in vivo; Liver,0.77 %ID/g
same,tissue uptake at 24 h,in vivo; Liver,0.81 %ID/g
same,tissue uptake at 72 h,in vivo; Liver,0.67 %ID/g
same,tissue uptake at 120 h,in vivo; Liver,0.59 %ID/g
same,tissue uptake at 1 h,in vivo; Lungs,0.53 %ID/g
same,tissue uptake at 3 h,in vivo; Lungs,0.28 %ID/g
same,tissue uptake at 24 h,in vivo; Lungs,0.2 %ID/g
same,tissue uptake at 72 h,in vivo; Lungs,0.17 %ID/g
same,tissue uptake at 120 h,in vivo; Lungs,0.15 %ID/g
same,tissue uptake at 1 h,in vivo; Muscle,0.09 %ID/g
same,tissue uptake at 3 h,in vivo; Muscle,0.03 %ID/g
same,tissue uptake at 24 h,in vivo; Muscle,0.03 %ID/g
same,tissue uptake at 72 h,in vivo; Muscle,0.02 %ID/g
same,tissue uptake at 120 h,in vivo; Muscle,0.01 %ID/g
same,tissue uptake at 1 h,in vivo; Pancreas,0.12 %ID/g
same,tissue uptake at 3 h,in vivo; Pancreas,0.04 %ID/g
same,tissue uptake at 24 h,in vivo; Pancreas,0.04 %ID/g
same,tissue uptake at 72 h,in vivo; Pancreas,0.03 %ID/g
same,tissue uptake at 120 h,in vivo; Pancreas,0.03 %ID/g
same,tissue uptake at 1 h,in vivo; Small Intestine,0.23 %ID/g
same,tissue uptake at 3 h,in vivo; Small Intestine,0.1 %ID/g
same,tissue uptake at 24 h,in vivo; Small Intestine,0.17 %ID/g
same,tissue uptake at 72 h,in vivo; Small Intestine,0.08 %ID/g
same,tissue uptake at 120 h,in vivo; Small Intestine,0.06 %ID/g
same,tissue uptake at 1 h,in vivo; Spleen,0.29 %ID/g
same,tissue uptake at 3 h,in vivo; Spleen,0.23 %ID/g
same,tissue uptake at 24 h,in vivo; Spleen,0.26 %ID/g
same,tissue uptake at 72 h,in vivo; Spleen,0.24 %ID/g
same,tissue uptake at 120 h,in vivo; Spleen,0.22 %ID/g
same,tissue uptake at 1 h,in vivo; Stomach,0.08 %ID/g
same,tissue uptake at 3 h,in vivo; Stomach,0.09 %ID/g
same,tissue uptake at 24 h,in vivo; Stomach,0.52 %ID/g
same,tissue uptake at 72 h,in vivo; Stomach,0.12 %ID/g
same,tissue uptake at 120 h,in vivo; Stomach,0.14 %ID/g
same,tissue uptake at 1 h,in vivo; Testes,0.11 %ID/g
same,tissue uptake at 3 h,in vivo; Testes,0.04 %ID/g
same,tissue uptake at 24 h,in vivo; Testes,0.04 %ID/g
same,tissue uptake at 72 h,in vivo; Testes,0.03 %ID/g
same,tissue uptake at 120 h,in vivo; Testes,0.03 %ID/g
same,tissue uptake at 1 h,in vivo; Z138 Tumor,13.7 %ID/g
same,tissue uptake at 3 h,in vivo; Z138 Tumor,11.7 %ID/g
same,tissue uptake at 24 h,in vivo; Z138 Tumor,7.28 %ID/g
same,tissue uptake at 72 h,in vivo; Z138 Tumor,3.47 %ID/g
same,tissue uptake at 120 h,in vivo; Z138 Tumor,2.38 %ID/g
same,tissue to tissue ratio at 1 h,in vivo; Tumor-to-Blood ratio,39.4
same,tissue to tissue ratio at 3 h,in vivo; Tumor-to-Blood ratio,147
same,tissue to tissue ratio at 24 h,in vivo; Tumor-to-Blood ratio,301
same,tissue to tissue ratio at 72 h,in vivo; Tumor-to-Blood ratio,396
same,tissue to tissue ratio at 120 h,in vivo; Tumor-to-Blood ratio,607
same,tissue to tissue ratio at 1 h,in vivo; Tumor-to-Bone ratio,94
same,tissue to tissue ratio at 3 h,in vivo; Tumor-to-Bone ratio,83.2
same,tissue to tissue ratio at 24 h,in vivo; Tumor-to-Bone ratio,15.3
same,tissue to tissue ratio at 72 h,in vivo; Tumor-to-Bone ratio,5.53
same,tissue to tissue ratio at 120 h,in vivo; Tumor-to-Bone ratio,5.33
same,tissue to tissue ratio at 1 h,in vivo; Tumor-to-Kidney ratio,4.54
same,tissue to tissue ratio at 3 h,in vivo; Tumor-to-Kidney ratio,4.78
same,tissue to tissue ratio at 24 h,in vivo; Tumor-to-Kidney ratio,4.01
same,tissue to tissue ratio at 72 h,in vivo; Tumor-to-Kidney ratio,3.69
same,tissue to tissue ratio at 120 h,in vivo; Tumor-to-Kidney ratio,4.1
same,tissue to tissue ratio at 1 h,in vivo; Tumor-to-Muscle ratio,161
same,tissue to tissue ratio at 3 h,in vivo; Tumor-to-Muscle ratio,430
same,tissue to tissue ratio at 24 h,in vivo; Tumor-to-Muscle ratio,281
same,tissue to tissue ratio at 72 h,in vivo; Tumor-to-Muscle ratio,175
same,tissue to tissue ratio at 120 h,in vivo; Tumor-to-Muscle ratio,178
same,tissue to tissue ratio at 1 h,in vivo; Tumor-to-Pancreas ratio,140
same,tissue to tissue ratio at 3 h,in vivo; Tumor-to-Pancreas ratio,276
same,tissue to tissue ratio at 24 h,in vivo; Tumor-to-Pancreas ratio,198
same,tissue to tissue ratio at 72 h,in vivo; Tumor-to-Pancreas ratio,103
same,tissue to tissue ratio at 120 h,in vivo; Tumor-to-Pancreas ratio,78
